Experimental findings from PMC3605642 (The Journal of Biological Chemistry, 2013) are described below.

Where two headings read alike, the source gives them in different places.

Sequences and labels used below:
B2: talin R3 rod domain (residues 787–911) (domain or fragment, mouse, UniProt P26039 787-911, looked up)
chain: AHATGAGPAGRYDQATDTILTVTENIFSSMGDAGEMVRQARILAQATSDLVNAIKADAEGESDLENSRKLLSAAKILADATAKMVEAAKGAAAHPDSEEQQQRLREAAEGLRMATNAAAQNAIKK
B3: talin R3 IVVI mutant (T809I/T833V/T867V/T901I) (domain or fragment, mouse, UniProt P26039 787-911, looked up)
chain: AHATGAGPAGRYDQATDTILTVIENIFSSMGDAGEMVRQARILAQAVSDLVNAIKADAEGESDLENSRKLLSAAKILADAVAKMVEAAKGAAAHPDSEEQQQRLREAAEGLRMAINAAAQNAIKK

Test [1] deals with vinculin domain 1 (Vd1; residues 1–258) (chicken) (UniProt P12003). Put plainly: SEC-MALS.
Test [2] concerns the target T1, vinculin domain 1 (Vd1; residues 1–258) (chicken, UniProt P12003 1-258).
T1 sequence (looked up): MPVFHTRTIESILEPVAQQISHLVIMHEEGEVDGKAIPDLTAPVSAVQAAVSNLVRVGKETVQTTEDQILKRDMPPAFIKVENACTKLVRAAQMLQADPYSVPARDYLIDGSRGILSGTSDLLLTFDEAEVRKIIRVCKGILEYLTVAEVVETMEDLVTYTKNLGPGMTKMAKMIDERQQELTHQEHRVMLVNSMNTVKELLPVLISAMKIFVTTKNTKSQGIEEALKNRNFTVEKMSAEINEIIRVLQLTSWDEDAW
Put plainly: ITC. Background: In ITC the heat of successive injections is recorded.

The target of test [3] is B2. Nature of the test: ITC.
Test [4] deals with B3. Put plainly: NMR titration.
For test [5], the target named is B2. Nature of the test: NMR titration.
Test [6] deals with talin R2R3 double domain fragment (mouse). Put plainly: SEC-MALS.
Test [7] shares this target. Put plainly: ITC.
Test [8] deals with T1, vinculin domain 1 (Vd1; residues 1–258). Put plainly: SEC. For orientation: SEC sorts molecules by how far they enter the pores of the column.
For test [9] the target is unchanged. Put plainly: SEC. The source holds these as a separate data set.

Chain of talin R2R3 double domain fragment (mouse) (P26039 whole entry, the tested form may be a part): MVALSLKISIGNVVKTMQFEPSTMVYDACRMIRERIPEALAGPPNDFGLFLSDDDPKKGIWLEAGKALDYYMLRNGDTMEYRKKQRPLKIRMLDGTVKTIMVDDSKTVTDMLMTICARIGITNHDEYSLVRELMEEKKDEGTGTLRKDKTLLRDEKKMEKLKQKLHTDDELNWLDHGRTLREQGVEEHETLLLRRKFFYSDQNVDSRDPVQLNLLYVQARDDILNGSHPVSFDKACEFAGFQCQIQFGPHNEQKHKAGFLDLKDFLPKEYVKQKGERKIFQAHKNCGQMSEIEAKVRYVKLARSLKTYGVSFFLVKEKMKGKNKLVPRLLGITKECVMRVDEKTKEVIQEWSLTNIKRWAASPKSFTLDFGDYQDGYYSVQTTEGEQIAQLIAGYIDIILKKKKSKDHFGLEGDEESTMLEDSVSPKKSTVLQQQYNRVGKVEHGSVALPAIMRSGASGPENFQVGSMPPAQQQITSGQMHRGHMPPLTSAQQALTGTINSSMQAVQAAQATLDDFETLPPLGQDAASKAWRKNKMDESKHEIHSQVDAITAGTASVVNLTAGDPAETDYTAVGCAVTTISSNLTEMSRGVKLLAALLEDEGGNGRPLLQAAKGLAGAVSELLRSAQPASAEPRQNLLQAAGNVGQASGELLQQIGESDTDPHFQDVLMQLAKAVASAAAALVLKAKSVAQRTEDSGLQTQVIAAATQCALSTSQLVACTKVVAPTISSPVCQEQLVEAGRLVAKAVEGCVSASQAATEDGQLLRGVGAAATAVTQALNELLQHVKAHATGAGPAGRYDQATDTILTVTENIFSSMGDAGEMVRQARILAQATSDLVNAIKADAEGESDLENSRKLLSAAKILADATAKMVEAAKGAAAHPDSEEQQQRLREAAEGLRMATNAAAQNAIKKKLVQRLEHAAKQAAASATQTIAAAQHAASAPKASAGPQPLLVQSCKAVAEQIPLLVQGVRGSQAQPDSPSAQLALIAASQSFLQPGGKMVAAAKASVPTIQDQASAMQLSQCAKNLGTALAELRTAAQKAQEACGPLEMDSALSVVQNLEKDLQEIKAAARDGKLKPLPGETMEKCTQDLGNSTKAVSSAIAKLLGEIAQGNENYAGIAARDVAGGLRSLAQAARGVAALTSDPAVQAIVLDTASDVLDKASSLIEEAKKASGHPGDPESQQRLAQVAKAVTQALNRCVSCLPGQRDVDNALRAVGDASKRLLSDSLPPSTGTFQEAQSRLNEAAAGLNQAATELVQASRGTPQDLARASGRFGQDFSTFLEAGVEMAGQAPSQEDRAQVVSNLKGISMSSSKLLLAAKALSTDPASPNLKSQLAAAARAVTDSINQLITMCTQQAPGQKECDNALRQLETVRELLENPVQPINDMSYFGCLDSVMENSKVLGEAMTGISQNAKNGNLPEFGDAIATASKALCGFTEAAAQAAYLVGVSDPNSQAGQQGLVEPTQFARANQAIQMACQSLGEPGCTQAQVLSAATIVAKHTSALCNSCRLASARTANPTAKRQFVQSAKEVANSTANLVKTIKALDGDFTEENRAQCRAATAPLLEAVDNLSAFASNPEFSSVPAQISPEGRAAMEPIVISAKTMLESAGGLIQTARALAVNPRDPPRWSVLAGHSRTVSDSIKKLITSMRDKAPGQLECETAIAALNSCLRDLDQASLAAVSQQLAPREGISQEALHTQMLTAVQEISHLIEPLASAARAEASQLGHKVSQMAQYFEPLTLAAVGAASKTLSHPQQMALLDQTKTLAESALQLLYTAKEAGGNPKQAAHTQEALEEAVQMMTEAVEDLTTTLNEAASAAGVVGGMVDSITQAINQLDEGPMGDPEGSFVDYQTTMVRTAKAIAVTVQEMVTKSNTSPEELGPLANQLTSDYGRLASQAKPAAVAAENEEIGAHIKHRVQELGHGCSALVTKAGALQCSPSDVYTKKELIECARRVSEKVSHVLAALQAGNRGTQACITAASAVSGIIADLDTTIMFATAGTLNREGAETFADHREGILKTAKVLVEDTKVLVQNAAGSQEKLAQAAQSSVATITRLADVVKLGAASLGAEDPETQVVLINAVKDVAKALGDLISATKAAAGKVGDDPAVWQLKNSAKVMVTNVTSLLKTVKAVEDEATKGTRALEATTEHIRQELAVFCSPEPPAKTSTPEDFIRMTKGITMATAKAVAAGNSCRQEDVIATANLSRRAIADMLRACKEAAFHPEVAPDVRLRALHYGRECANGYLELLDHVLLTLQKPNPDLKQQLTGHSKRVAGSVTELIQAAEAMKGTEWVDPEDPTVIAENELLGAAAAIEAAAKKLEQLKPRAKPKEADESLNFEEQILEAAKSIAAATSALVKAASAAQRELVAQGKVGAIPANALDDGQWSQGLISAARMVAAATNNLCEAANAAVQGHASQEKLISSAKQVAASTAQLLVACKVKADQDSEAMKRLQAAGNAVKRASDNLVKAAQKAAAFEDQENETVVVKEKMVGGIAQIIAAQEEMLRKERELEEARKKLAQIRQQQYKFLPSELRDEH

With “talin R2R3 double domain fragment (domain or fragment)”, in test [1], the stoichiometry N amounted to 4 Vd1 per R2R3.
The molecule MGESNEDIDQMFSTLLGEMDLLTQSLGVDTLP (peptide, UniProt Q8R5A3 1-32, looked up) [RIAM(1–32) (TBS1)] registered a dH in [2] of -1.5 kcal. In test [3], this molecule had a Kd of 36000 nM.
Consider EDIDQMFSTLLGEMDLLTQSLGVDT [RIAM wild type peptide (6-30), TBS1], for which the binding result in [4] and in test [5] was “binds” each time.
GEMVRQARILAQATSDLVNAIKADA (peptide, UniProt P26039 820-844, looked up) [talin VBS (residues 820–844) in talin R3]: in [2], the affinity, expressed as Kd, was 800 nM and the dH is -5.9 kcal.

B1: RIAM(1–127) (TBS1-TBS2) (domain or fragment)
chain: MGESNEDIDQMFSTLLGEMDLLTQSLGVDTLPPPDPNPPREEFNYTVGFKDLNESLNALEDQDLDALMADLVADISEAEQRTIQAQKESSQNQDRFALLRASDGQGTASGGYGASAAAIDVSHHEEA
For B1, the stoichiometry N in test [6] came out at 1. In test [7], the Kd came to 2000 nM.
With B2, the binding result in test [8] was “binds”.
In the case of B3, the binding result in test [9] was “binds”.

One may read the stoichiometry N as the number of molecules, sites or subunits per partner or assembly. Usually Kd stands for the equilibrium constant for the complex coming apart. Higher therefore signals a looser complex.
